Assay results as given in patent EP2857035B1 (Survac ApS, dated 2017).

Columns and labels:
HLA-A2 [1] = biological target: T1, HLA-A2 (human); experiment: assembly assay, TAP-deficient cell lysate
T1 construct: MHC class I molecule without added peptide, from cell lysate; stably folded molecules immunoprecipitated with a conformation-dependent antibody; also called HLA-A*0201; HLA A*0201

HLA-A2 [2] = biological target: T1, HLA-A2; experiment: assembly assay, T2 cell lysate
HLA-B35 = HLA-B35 (human); experiment: assembly assay, T2-B35 cell lysate, W6/32 IP, IEF gel
HLA-A11 = biological target: T2, HLA-A11 (human); experiment: assembly assay, TAP-deficient cell lysate
T2 construct: MHC class I molecule from cell lysate; immunoprecipitated with mAb W6/32; also called HLA-A*1101

HLA-A1 = biological target: T3, HLA-A1 (human); experiment: assembly assay, TAP-deficient cell lysate
T3 construct: MHC class I molecule; also called HLA-A*0101

HLA-A3 = biological target: T4, HLA-A3 (human); experiment: assembly assay, TAP-deficient cell lysate
T4 construct: MHC class I molecule from cell lysate; immunoprecipitated with mAb W6/32; also called HLA-A*0301

Q: Does SVKKQFEELTL [Sur88-98] bind (HLA-A2 [1])?
A: no binding

Q: Does TAKKVRRAI (also called Survivin127-135) [Sur7] bind (HLA-A2 [2])?
A: no binding

Q: CPTENEPDL (also called Survivin46-54) [Sur46-54] was tested. Which C50 (HLA-B35) did it give?
A: 20 µM

Q: Does ELTLGEFLK [Sur 95-103] bind (HLA-A11)?
A: no binding (tested: peptide tested at 40, 4, 0.4, 0.04 µM)

Q: Does PTENEPDLAQ [Sur47-56] bind (HLA-A1)?
A: no binding (tested: peptide tested at 40, 4, 0.4, 0.04 µM)

Q: How did the C50 (HLA-B35) turn out when EPDLAQCFY [Sur51Y9] was run?
A: 1.5 µM

Q: Does EPDLAQCFF (also called Survivin51-59) [Sur51-59] bind (HLA-A1)?
A: no binding (tested: peptide tested at 40, 4, 0.4, 0.04 µM)

Q: And the C50 (HLA-B35)?
A: 13 µM

Q: Does LKDHRISTF [Sur14-22] bind (HLA-A1)?
A: no binding (tested: peptide tested at 40, 4, 0.4, 0.04 µM)

Q: Does LKDHRISTY [sur14Y9] bind (HLA-A1)?
A: no binding (tested: peptide tested at 40, 4, 0.4, 0.04 µM)

Q: Does FEELTLGEY [sur93Y9] bind (HLA-A1)?
A: no binding (tested: peptide tested at 40, 4, 0.4, 0.04 µM)

Q: Does PTLPPAWQPFL [Sur4-14] bind (HLA-A2 [1])?
A: no binding

Q: Does RAIEQLAAM (also called Survivin133-141) [Sur2] bind (HLA-A2 [2])?
A: no binding

Q: Does KLDRERAKNKI [Sur103-113] bind (HLA-A2 [1])?
A: no binding

Q: Which results are given for DLAQCFFCF [Sur 53-61]?
A: binding result (HLA-A3): no binding; binding result (HLA-A11): no binding (tested: peptide tested at 40, 4, 0.4, 0.04 µM)

Q: Does DLAQCFFCK [Sur53K9] bind (HLA-A3)?
A: no binding

Q: Which results are given for RISTFKNWPF [Sur 18-27]?
A: binding result (HLA-A3): no binding; binding result (HLA-A11): no binding (tested: peptide tested at 40, 4, 0.4, 0.04 µM)

Q: Does TPERMAEAGF (also called Survivin34-43) [Sur34-43] bind (HLA-A1)?
A: no binding (tested: peptide tested at 40, 4, 0.4, 0.04 µM)

Q: And the C50 (HLA-B35)?
A: > 100 µM

Q: Does TPERMAEAGY [sur34Y9] bind (HLA-A1)?
A: no binding (tested: peptide tested at 40, 4, 0.4, 0.04 µM)

Q: Does FLKDHRISTK [Sur13K9] bind (HLA-A3)?
A: no binding

Q: Which results are given for KLDRERAKNK [Sur 103-112]?
A: binding result (HLA-A3): no binding; binding result (HLA-A11): no binding (tested: peptide tested at 40, 4, 0.4, 0.04 µM)

Q: Does PTIRRKNLRK (the text says nothing of its origin) [SurEx3-A3-2] bind (HLA-A3)?
A: no binding

Q: Does LAQCFFCFKEL [Sur54-64] bind (HLA-A2 [1])?
A: no binding

Q: Does MAEAGFIHC [Sur38-46] bind (HLA-A1)?
A: no binding (tested: peptide tested at 40, 4, 0.4, 0.04 µM)

Q: Does ETAKKVRRAI (also called Survivin126-135) [Sur10] bind (HLA-A2 [2])?
A: no binding

Q: Does RITREEHKK (the text says nothing of its origin) [Sur2b-A3-1] bind (HLA-A3)?
A: no binding

Q: Does QFEELTLGEY [sur92Y9] bind (HLA-A1)?
A: no binding (tested: peptide tested at 40, 4, 0.4, 0.04 µM)

Q: LPPAWQPFL (also called Survivin6-14) [Sur6-14] was tested. Which C50 (HLA-B35) did it give?
A: > 100 µM

Q: Does IAKETNNKKK [Sur 113-122] bind (HLA-A3)?
A: no binding

Q: Does IAKETNNKKK [Sur 113-122] bind (HLA-A11)?
A: no binding (tested: peptide tested at 40, 4, 0.4, 0.04 µM)

Q: Which C50 (HLA-B35) does the source give for CPTENEPDY [Sur46Y9] here?
A: 4 µM

Q: Does ENEPDLAQCF [Sur49-58] bind (HLA-A1)?
A: no binding (tested: peptide tested at 40, 4, 0.4, 0.04 µM)

Q: Does ENEPDLAQCY [sur49Y9] bind (HLA-A1)?
A: no binding (tested: peptide tested at 40, 4, 0.4, 0.04 µM)

Q: Does SVKKQFEEL (also called Survivin88-96) [Sur5] bind (HLA-A2 [2])?
A: no binding

Q: Does CAFLSVKKQF [Sur 84-93] bind (HLA-A3)?
A: no binding

Q: Does CAFLSVKKQF [Sur 84-93] bind (HLA-A11)?
A: no binding (tested: peptide tested at 40, 4, 0.4, 0.04 µM)

Q: What does the source list for FLKLDRERAK [Sur 101-110]?
A: binding result (HLA-A3): no binding; binding result (HLA-A11): no binding (tested: peptide tested at 40, 4, 0.4, 0.04 µM)
